One test has as its target Glycopeptide. Nature of the test: surface plasmon resonance, Table S3 of Brooks et al. (2010) PNAS drawn on the sheet; per legend paragraph 58 measured for the 237 Fab [C].
Test [1] deals with Tn-glycosylated murine podoplanin on COSMC-mutant cells (murine) (UniProt Q62011). The test can be described thus: flow cytometry on Ag104A, Jurkat and SKOV3 variants; binding ratio = MFI primary+secondary / MFI secondary alone.
Chain of Tn-glycosylated murine podoplanin on COSMC-mutant cells (murine) (Q62011 23-172, change not shown): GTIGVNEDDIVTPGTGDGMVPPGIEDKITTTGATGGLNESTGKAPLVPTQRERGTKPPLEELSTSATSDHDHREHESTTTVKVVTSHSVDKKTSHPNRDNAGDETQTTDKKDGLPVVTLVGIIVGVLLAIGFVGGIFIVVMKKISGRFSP

B1: 237mAb Fab (Fab, V domains shown)
VH: QVQLQQSGGGLVQPGGSMKIFCAASGFTFSDAWMDWVRQSPEKGLEWVAEIRNKANNHETYYAESVKGRFTITRDDSKSRMSLQMNSLRAEDTGIYYCSGGKVRNAYWGQGTTVTVSS
VL: DIQLTQSPLSLPVSLGDQASISCRSSQSLVHSNGNTYLHWYLQKPGQSPKLLIYKVSNRFSGVPDRFSGSGSGTDFTLKISSVEAEDLGVYFCSQSTHVPTFGGGTKLEIK
As to B1, in the test with Glycopeptide, the dissociation rate constant (koff) was determined as 0.013 s⁻¹ and the kon amounted to 94000 M⁻¹ s⁻¹.

B2: 237 monoclonal antibody (antibody, V domains shown)
VH: QVQLQQSGGGLVQPGGSMKIFCAASGFTFSDAWMDWVRQSPEKGLEWVAEIRNKANNHETYYAESVKGRFTITRDDSKSRMSLQMNSLRAEDTGIYYCSGGKVRNAYWGQGTTVTVSS
VL: DIQLTQSPLSLPVSLGDQASISCRSSQSLVHSNGNTYLHWYLQKPGQSPKLLIYKVSNRFSGVPDRFSGSGSGTDFTLKISSVEAEDLGVYFCSQSTHVPTFGGGTKLEIK
On to B2, for which, in test [1], the fold of binding ratio over cells that were PDPN- and/or Cosmc+ is above 100 fold.

Source of the values: patent US20220047631A1.
